Laboratory results: patent US20260184804A1 (KEY2BRAIN, published 2026)

What was measured:
[1] = target: T1, His-tagged ectodomain of human transferrin receptor 1 (hTfR1), amino acids R121-F760 (human, UniProt P02786 121-760); experiment: SPR; hTfR1 pre-complexed with immobilised hTf
T1 construct: Made in CHO cells, purified by IMAC; also called human TfR1; ectodomain of hTfR1

[2] = target: T2, His-tagged ectodomain of mouse transferrin receptor 1 (mTfR1), amino acids S122-F763 (mouse, UniProt Q62351 122-763); experiment: SPR (Biacore T200); mTfR1 amine-coupled on CM5, KB_A01 as analyte
T2 construct: Made in CHO cells; also called mouse TfR1
Experimental: The contact time was 150 s for each concentration at […] with a final dissociation step of 500 s. […] At the end of each single cycle run, the mTfR1 surface was fully regenerated by an injection of 10 mM NaOH for 30 s. After each single cycle kinetic run, blank run was performed and used for baseline correction. The data with respect to the association rate constant (ka), the dissociation rate constant (kd) and the equilibrium dissociation constant (KD) was evaluated using Biacore T200 software evaluation tool applying a Langmuir 1:1 model.

[3] = target: T1, His-tagged ectodomain of human …; experiment: SPR (Biacore T200, single-cycle); hTfR1 captured on amine-coupled hTf, binder as analyte 6.25-100 nM

T1 sequence (P02786 other isoform, or with tags, fused parts or gaps limits assumed): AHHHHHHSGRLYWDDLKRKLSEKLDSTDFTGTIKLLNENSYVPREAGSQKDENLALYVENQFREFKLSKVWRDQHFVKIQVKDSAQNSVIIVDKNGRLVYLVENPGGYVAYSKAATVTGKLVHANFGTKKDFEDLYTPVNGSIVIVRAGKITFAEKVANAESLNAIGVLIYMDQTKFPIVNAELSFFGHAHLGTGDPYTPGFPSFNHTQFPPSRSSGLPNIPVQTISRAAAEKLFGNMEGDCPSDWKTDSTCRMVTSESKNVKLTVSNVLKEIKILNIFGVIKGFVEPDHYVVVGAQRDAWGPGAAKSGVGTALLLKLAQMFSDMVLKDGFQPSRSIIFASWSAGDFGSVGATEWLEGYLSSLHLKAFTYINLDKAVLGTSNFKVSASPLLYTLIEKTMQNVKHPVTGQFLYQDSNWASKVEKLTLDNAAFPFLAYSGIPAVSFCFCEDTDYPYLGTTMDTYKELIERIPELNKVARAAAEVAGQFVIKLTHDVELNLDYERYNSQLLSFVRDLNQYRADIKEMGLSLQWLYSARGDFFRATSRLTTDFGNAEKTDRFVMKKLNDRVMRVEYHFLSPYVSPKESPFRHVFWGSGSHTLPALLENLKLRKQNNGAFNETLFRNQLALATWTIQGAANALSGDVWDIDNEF
T2 sequence (Q62351 other isoform, or with tags, fused parts or gaps limits assumed): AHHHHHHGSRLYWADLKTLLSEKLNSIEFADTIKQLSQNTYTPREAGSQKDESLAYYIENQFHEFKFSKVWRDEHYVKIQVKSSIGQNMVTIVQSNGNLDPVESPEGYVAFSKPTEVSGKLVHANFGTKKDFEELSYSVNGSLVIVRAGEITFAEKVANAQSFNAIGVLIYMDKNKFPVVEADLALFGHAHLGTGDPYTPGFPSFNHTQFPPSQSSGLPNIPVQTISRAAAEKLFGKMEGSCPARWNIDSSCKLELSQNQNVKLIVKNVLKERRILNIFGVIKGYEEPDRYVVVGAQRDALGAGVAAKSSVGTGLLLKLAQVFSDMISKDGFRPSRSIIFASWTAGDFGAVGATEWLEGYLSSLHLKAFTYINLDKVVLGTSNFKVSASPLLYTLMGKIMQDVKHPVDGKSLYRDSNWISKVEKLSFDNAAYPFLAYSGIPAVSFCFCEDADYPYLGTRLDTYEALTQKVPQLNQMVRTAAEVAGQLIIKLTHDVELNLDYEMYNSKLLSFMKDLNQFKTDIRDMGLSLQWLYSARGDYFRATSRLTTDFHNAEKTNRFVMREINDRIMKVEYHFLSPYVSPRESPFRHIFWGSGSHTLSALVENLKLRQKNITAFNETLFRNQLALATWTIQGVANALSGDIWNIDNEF

- fold lower affinity (KD) than the bivalent BA1 [1]: 206 fold
- binding result [2]: no binding (tested: 6.25 to 100 nM)
- Kd [3]: 4.1 nM
- koff [3]: 0.00414 s⁻¹
- kon [3]: 1.01e+06 M⁻¹ s⁻¹
B1: KB_A01, monomeric free VHH with C-terminal 6xHis tag and C-tag (VHH)
VHH: QVQLQESGGGSVQAGGSLSLSCAASGSIFGSKRMGWFRQAPGEQRDVVATITYRGTTEYADSVKGRFTISRDNAKNTVYLQMNNLKPEDTAVYYCWMFTTDNYWGQGTQVTVSS
notes: From the periplasm of E. coli
